According to the supplement of paper PMC9170038:

Tested on: MS2 coat protein
Assay: apparent KD of MS2 coat protein; designed switch direction (-1 OFF switch, 1 ON switch): -1; higher = weaker reporter binding
Procedure, shortened: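 The apparent KD reported per design is the median over clusters of curve fits to normalised cluster fluorescence. The RNA switches were transcribed on Illumina chips by stalled E. coli RNA polymerase. SNAP-549-labelled MS2 coat protein was titrated from 0.7 or 1.5 nM, doubling up to 3 µM, in Tris-HCl pH 7.5 buffer containing KCl, MgCl2, BSA, DTT, tRNA and Tween-20, with no input, 200 uM small-molecule ligand, or an oligonucleotide input.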

[1] = input ligand: microRNA oligo, concentration not stated
[2] = Eterna round: R95, input ligand: FMN 200 uM
[3] = Eterna round: R95, input ligand: microRNA oligo, concentration not stated
[4] = Eterna round: R95, input ligand: none

Row | Sequence | apparent KD of MS2 coat protein (input ligand: FMN 200 uM) [nM] | apparent KD of MS2 coat protein [1] [nM] | apparent KD of MS2 coat protein (input ligand: none) [nM] | apparent KD of MS2 coat protein [2] [nM] | apparent KD of MS2 coat protein [3] [nM] | apparent KD of MS2 coat protein [4] [nM]
1 | GGGCUGCGACACAGCCCAACAAAACAUGAGGAUCACCCAUGUCAGGAUAUACCGAUGCAGCAUCUGUAGAAGGGACAGAUCCAA [Usorxe] (Eterna round: R96, puzzle: Exclusion NG 3) | 120 | 88.1 | 66.3 |  |  | 
2 | AAGUAGAGCUAAGGAUAUAUAGAGUAGUAGAAGAUAGAAGGUAGAAGUAGAAGAUGAUGAUGAAGAUGAAGUAGAUGAAGUAGA [TEST1] (Eterna round: R96, puzzle: Exclusion NG 1) | 24.7 | 209 | 19.9 |  |  | 
3 | ACAAGCUUAAAGGUGAAUAACAUGAGGAUCACCCAUGUUCGUCUUAUAAAAAUAAAAAUAAAAAAUAAAAAAUAAAA [Sensor V2: 62] (Eterna round: R96, puzzle: Sensor v2, turn-off variant) | 25.6 | 87.2 | 27.9 |  |  | 
4 | AGUAGGUCUACCUUGGUGGAUCUGCAUUUAAGCAGGUGUACAUGAGGAUCACCCAUGUCCUCAUUUGCUCGUCUUAU [JL turnoff v2 99.30] (puzzle: Sensor v3, turn-off variant 2) |  |  |  | 453 | 342 | 492
5 | UGUAACCGAGGAUAUACAUGAGGAUCACCCAUGUAAUGUAGUAUAGUGUAUGUAAGGUGUAGAAGGUGGGAUGU (Eterna round: R97, puzzle: Exclusion 3) | 48.4 |  | 74.7 |  |  | 
6 | CUUUUGUGAGGAUAUCAGUAGUAGAACAAUAGUACUACUACUGAGAAGGCACAUGAGGAUCACCCAUGUUCUUC [Fiskers Ex 4 Super stable 44 mod 5] (puzzle: Exclusion 4) |  |  |  |  | 27.8 | 
7 | UUUGUUUGGUAGGAUAUCAACUAAGAGAGUGGCUGAGAAGGACCAACAUGAGGAUCACCCAUGUCGGUUCCGUU [EX6 C.15] (Eterna round: R97, puzzle: Exclusion 6) | 16.2 |  | 14.8 |  |  | 
8 | UUAAAUCAUGUAGGAUAUGCGUGGCGAAGCUAUGCAGAAGGACAUGAGGAUCACCCAUGUGCUGCGGUCUGCGUACAGAUCGCU [JL ENG1 1.03] (Eterna round: R96, puzzle: Exclusion NG 1) | 98.7 | 76.4 | 142 |  |  | 
9 | GACUGAGCAGGAUAUACAUGAGGAUCACCCAUGUUGGUUCAGCGACGAUAGUCGCAAUGUAGAAGGGCUCAGUC [E3/9-D2] (Eterna round: R97, puzzle: Exclusion 3) | 273 |  | 203 |  |  | 
10 | CGGUGCUGAGGAUAUACAUGAGGAUCACCCAUGUGUGCCAGCUAGAAGACUGGCACUUGUAGAAGGCAGUACUG [Mat - Exclusion 3 - Mod of JL D90] (puzzle: Exclusion 3) |  |  |  |  | 10.3 | 
11 | CCGAGGCUAGGAUAUUGACGAUAAUACAUGAGGAUCACCCAUGUGAGUCGUGUAUGCGCGCAAGAAGGAGUAAUAA [Tiorreonbi] (puzzle: Exclusion 5) |  |  |  |  | 15.2 | 
12 | GCCAGAGGAGGAUAUCUAAUAUAUCACAUGAGGAUCACCCAUGUCCAGCGAAAGCUGGAGGGAGAAGGCCUCUGGC [Fiskers Ex 5 - 23] (Eterna round: R96, puzzle: Exclusion 5) | 74.8 | 172 | 252 |  |  | 
13 | CCCUCAUGACGCACAUGAGGAUCACCCAUGUAUAAACCGUCAGAGGAUAUCCGCCGGUCACCGAAGGAGAAGGCUGACCUAAAG [Quinlaan] (Eterna round: R96, puzzle: Exclusion NG 3) | 21.2 | 11 | 18.2 |  |  | 
14 | CGCUGGACAGGAUAUGUUUUUGGGCACUUGAGGAUCACCCAAGUCAUCAAGAAAACAGGCACAGAAGGGUUUAUGG [salish99_ex5_r4_022(!)] (Eterna round: R97, puzzle: Exclusion 5) | 28 |  | 25.1 |  |  | 
15 | ACCGAACAUGAGGAUCACCCAUGUAAGGAUAUCCGUGGACAGCGCCAAAGUUACCGGCGGAGAAGGUGCAUGGU (Eterna round: R97, puzzle: Exclusion 1) | 24.6 |  | 19.2 |  |  | 
16 | UUCUUAUAUGAAGGAUAUACUUAACAUGAGGAUCACCCAUGUGGUGUUGUGAGUGAGUGAGUUUAGUAGAAGGUCAAUUCUUUU [JMF's solution 95] (Eterna round: R96, puzzle: Exclusion NG 2) | 818 | 326 | 355 |  |  | 
17 | AGGUGCUUCAGGAGACAUGAGGAUCACCCAUGUUGAGUUAGCGAGGAUAUCGGUAACCCAUGUGAUGAGAAGGCGCAAACCAAU [Ex NG3 #46] (Eterna round: R96, puzzle: Exclusion NG 3) | 92.9 | 52.4 | 74.1 |  |  | 

Row | Sequence | apparent KD of MS2 coat protein (input ligand: FMN 200 uM) [nM] | apparent KD of MS2 coat protein [1] [nM] | apparent KD of MS2 coat protein (input ligand: none) [nM] | apparent KD of MS2 coat protein [2] [nM] | apparent KD of MS2 coat protein [3] [nM] | apparent KD of MS2 coat protein [4] [nM]
18 | UAUCCACAUGAGGAUCACCCAUGUCAGGAUAUGCACUAUGGGCCAAGUGGUCCAAGGAGCAGAAGGGACGAGAG [Eternabot (L2) Solution 25] (Eterna round: R97, puzzle: Exclusion 1) | 28.9 |  | 15.2 |  |  | 
19 | GCCGGAUAAGUGAGGAUAUGCCUAUGGAUACGUAGGCAGAAGGCACAUGAGGAUCACCCAUGUACCUCUCCGGC [JL-BMX4-4.25 Eli mod] (Eterna round: R97, puzzle: Brourd's mod of Exclusion 4) | 116 |  | 17.5 |  |  | 
20 | UUAUUGUGUGUAGGAUAUGCGUGUUAUUAUUAUGCAGAAGGACAUGAGGAUCACCCAUGUGUAUUGUUAUUAUAUAUUAUAUAU [Title] (Eterna round: R96, puzzle: Exclusion NG 1) | 48.2 | 21.2 | 27 |  |  | 
21 | AGAUGCUCAAGUCGACAUGAGGAUCACCCAUGUACAGUUAACGAGGAUAUCCGAGAUAAAUAAUAGGAGAAGGCGUGAUCAUGA [Ex NG3 #3] (Eterna round: R96, puzzle: Exclusion NG 3) | 154 | 78.2 | 123 |  |  | 
22 | AAAAAGGUAGGAUAUCCACUUUAAAACAUGAGGAUCACCCAUGUAAAACCACAUGAAAAAGGAGAAGGACCAAAAA [AK-MS2ROC-r4-exclusion5-2] (Eterna round: R97, puzzle: Exclusion 5) | 24.7 |  | 26 |  |  | 
23 | UAGAUACAUGAGGAUCACCCAUGUGAGGAUAUGAGAAUUAGUUUAAAUGAAUUAAUUUUCAGAAGGCACGGAGG [JR_Ex1_Sub053] (Eterna round: R97, puzzle: Exclusion 1) | 180 |  | 123 |  |  | 
24 | UUGACUGGCGAGGAUAUCUCGCAAUAGUUAGGGAGAGAAGGUGCUACAUGAGGAUCACCCAUGUCAAACGAACC [Eternabot (L1) Solution 58] (Eterna round: R97, puzzle: Exclusion 6) | 17.7 |  | 21.9 |  |  | 
25 | AUGUGCACGCUGCGGUCCUACAUGAGGAUCACCCAUGUGGUCUGGUGGCGUGGGUCGCCGGACUUGGCUCGUCUUGU [salish99_S_TOV1_R5_030] (Eterna round: R97, puzzle: Sensor, turn-off variant 1) | 18.6 |  | 18.7 |  |  | 
26 | UAUAUAUAGUAAGGAUAUGUAAUUGUUUUAUAAACAGAAGGUACUGACAUGAGGAUCACCCAUGUUUUAGUGUGGGCAUGUAGA [JMF's solution 33] (Eterna round: R96, puzzle: Exclusion NG 1) |  | 45.7 |  |  |  | 
27 | CAGCUGUCAGGAUAUCGUGCAUACAACGAAAGUUCUAUGUGCGAGAAGGGACAUGAGGAUCACCCAUGUUAACG [Omei Ex4 A25] (Eterna round: R97, puzzle: Exclusion 4) | 58 |  | 46 |  |  | 
28 | AGGUCCUUCUGGAGACAUGAGGAUCACCCAUGUCGAGUCAGCGAGGAUAUCGGUUAAUAAUGUGAUGAGAAGGCGCAGACCGAU [Ex NG3 #53] (Eterna round: R96, puzzle: Exclusion NG 3) | 15.5 | 8.55 | 11.3 |  |  | 
29 | AUAAUUAGUUCAGGAUAUCAGCACGAUUAGUGCUGAGAAGGGAACAUGAGGAUCACCCAUGUGAUCAAUAUUAUAAUUUUAAUU [ENG1/12-B1] (Eterna round: R96, puzzle: Exclusion NG 1) | 281 | 540 | 1150 |  |  | 
30 | GGCGCACAUGAGGAUCACCCAUGUGAGGAUAUGUGGCGAUCGUCGAUAGACGAUAGCCACAGAAGGCACAUGCC [Mat - Exclusion 1 - Eli Mod - D20] (Eterna round: R97, puzzle: Exclusion 1) | 74 |  | 33.3 |  |  | 
31 | UGAUCUUUUGUUAGGAUAUGCUGUUGUUUUCAACAGCAGAAGGGACAUGAGGAUCACCCAUGUCUUGUCAUAAA [Magic-04] (puzzle: Brourd's mod of Exclusion 4) |  |  |  |  | 12.7 | 
32 | CGCUAGUCAGGAUAUACGAACAUGUCAAAAGACGUGAAGGGACAUGAGGAUCACCCAUGUAGAAGGGACUAGCA [salish99_ex2_r3_014] (puzzle: Exclusion 2) |  |  |  | 147 | 22.5 | 24.9
33 | GAUUAACAUGAGGAUCACCCAUGUGAGGAUAUGAACUUGCCCACUUACCCUUUAGAGUUUAGAAGGCGCAUUCU [1986#33] (Eterna round: R97, puzzle: Exclusion 1) | 22.4 |  | 28.2 |  |  | 
34 | GAACCAUGAGGAUAUUCUGAUCCUAACAUGAGGAUCACCCAUGUGAGUACAAAAGUACUCGAAGAAGGCAUGGUUC [Omei Ex5 B2] (Eterna round: R97, puzzle: Exclusion 5) | 819 |  | 428 |  |  | 
